Data published in paper PMC6179186, “Novel RNA aptamers targeting gastrointestinal cancer biomarkers CEA, CA50 and CA72-4 with superior affinity and specificity”.

Assays:
[1] = tested on: CA72-4 (cancer antigen 72-4) (human); assay: fluorescence titration; details: 5 mM MgCl2; yeast tRNA competitor 1 ug/ul; RSB-100: 10 mM Tris-HCl pH 7.5, 5 mM MgCl2, 100 mM NaCl, 0.01% NP-40, yeast tRNA 1 ug/ul, room temperature, 10 min; 1 pmol RNA, antigen 0-200 nM
[2] = tested on: CA50 (cancer antigen 50) (human); assay: fluorescence titration; details: 5 mM MgCl2; yeast tRNA competitor 1 ug/ul; RSB-100: 10 mM Tris-HCl pH 7.5, 5 mM MgCl2, 100 mM NaCl, 0.01% NP-40, yeast tRNA 1 ug/ul, room temperature, 10 min; 1 pmol RNA, antigen 0-200 nM
[3] = molecular target: CEA (carcinoembryonic antigen) (human, UniProt P06731 35-685); assay: fluorescence titration; 5 mM MgCl2; yeast tRNA competitor 1 ug/ul; RSB-100: 10 mM Tris-HCl pH 7.5, 5 mM MgCl2, 100 mM NaCl, 0.01% NP-40, yeast tRNA 1 ug/ul, room temperature, 10 min; 1 pmol RNA, antigen 0-200 nM; details: protein: commercial; label: Alexa Fluor 488 (ULS); mfold-predicted secondary structure
Chain of CEA (carcinoembryonic antigen) (P06731 35-685): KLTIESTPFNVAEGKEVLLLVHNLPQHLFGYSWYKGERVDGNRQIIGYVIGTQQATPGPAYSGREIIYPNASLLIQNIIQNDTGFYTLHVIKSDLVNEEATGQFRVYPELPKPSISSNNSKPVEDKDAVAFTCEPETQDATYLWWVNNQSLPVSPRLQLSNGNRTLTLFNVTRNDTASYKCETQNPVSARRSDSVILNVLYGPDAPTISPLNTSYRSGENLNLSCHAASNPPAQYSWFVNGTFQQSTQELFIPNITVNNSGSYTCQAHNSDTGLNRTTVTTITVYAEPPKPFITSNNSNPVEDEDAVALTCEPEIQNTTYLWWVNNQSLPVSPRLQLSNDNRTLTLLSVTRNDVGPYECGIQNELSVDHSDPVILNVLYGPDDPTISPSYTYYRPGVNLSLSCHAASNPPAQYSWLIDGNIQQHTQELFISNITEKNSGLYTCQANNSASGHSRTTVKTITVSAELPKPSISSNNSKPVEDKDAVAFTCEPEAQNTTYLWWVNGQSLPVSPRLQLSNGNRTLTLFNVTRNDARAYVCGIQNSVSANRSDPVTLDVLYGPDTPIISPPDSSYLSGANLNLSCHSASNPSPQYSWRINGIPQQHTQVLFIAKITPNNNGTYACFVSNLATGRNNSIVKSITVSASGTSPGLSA

Molecule	Kd [1] [nM]	Kd [2] [nM]	also measured
GGGUCGUGUCGGAUCCUGCGAAGGGGGGCAGAGGUUUGACGCGAGAAAGCUUCUAAGGUAACGAU [CA72-4 A01]	52.7	–	–
GGGUCGUGUCGGAUCCCCCAAAAAGGAUUGGGGCGUCUGCAUGACCAAGCUUCUAAGGUAACGAU [CA72-4 A02]	71.2	–	–
GGGUCGUGUCGGAUCCAGCUCGAAAGUGGGCUGGCGAUGUGUCCCGAAGCUUCUAAGGUAACGAU [CA50 A02]	–	30.7	–
GGGUCGUGUCGGAUCCGUGAGUUUUUCGCGGCGAAGACAAGGCUCGAAGCUUCUAAGGUAACGAU [CA50 A01]	–	38	–
CEA A02 (structured_RNA) RNA: GGGUCGUGUCGGAUCCAACGGCAUGACCUAACCUGGAGGCGCAUCAAAGCUUCUAAGGUAACGAU	–	–	Kd [3]: 156 nM
